# Experimental data taken from article PMC6635533.
# Where “and” joins values, the source holds several entries; their conditions need not be identical. Equal entries are not always repeated.
# Experiments:
# [1] = target: RocA cytoplasmic domain (amino acids 226 to 451) with a C-terminal FLAG tag, expressed in GAS M18 strain H566 (strain CYT_F) (Streptococcus pyogenes (group A Streptococcus), serotype M1 strain 854); test: cross-linking; live GAS M18 strains treated with 1% formaldehyde (10 min, room temperature), quenched with 250 mM glycine; protoplast preparations, SDS-PAGE, anti-FLAG blot
# [2] = target: RocAM1 with a C-terminal FLAG tag, full length (amino acids 1 to 451), expressed in GAS M18 strain H566 (strain M1_F) (Streptococcus pyogenes (group A Streptococcus), serotype M1 strain 854); test: as above
# [3] = target: RocAM3 with a C-terminal FLAG tag (amino acids 1 to 416), expressed in GAS M18 strain H566 (strain M3_F) (Streptococcus pyogenes (group A Streptococcus), serotype M3 strain 188); test: as above
# [4] = target: RocA_(FLAG) expressed from a single chromosomal copy in GAS M1 strain 854 (strain 854_chF) (Streptococcus pyogenes (group A Streptococcus), serotype M1 strain 854); test: cross-linking; formaldehyde cross-linking with GAS M1 strain 854_chF (native expression level); RocA_(FLAG) affinity purified from the protoplast lysate for detection by anti-FLAG blot
substance,measurement,setting,value
"RocA cytoplasmic domain (amino acids 226 to 451) with a C-terminal FLAG tag, expressed in GAS M18 strain H566 (strain CYT_F) (domain or fragment)",stoichiometry N,[1],2
"RocAM1 with a C-terminal FLAG tag, full length (amino acids 1 to 451), expressed in GAS M18 strain H566 (strain M1_F) (natural protein)",stoichiometry N,[2],2 and 4
"RocAM3 with a C-terminal FLAG tag (amino acids 1 to 416), expressed in GAS M18 strain H566 (strain M3_F) (natural protein)",stoichiometry N,[3],2
RocA_(FLAG) expressed from a single chromosomal copy in GAS M1 strain 854 (strain 854_chF) (natural protein),stoichiometry N,[4],2
